From PMC4656997

Target: GST-CTD substrate (human)

KmCTD from in vitro kinase assay (32P-GST-CTD product) against varying concentrations of GST-CTD substrate [µM]	KmCTD from in vitro kinase assay (32P-GST-CTD product) against varying concentrations of GST-CTD substrate, 10 μM ATP, 15 min [µM]	Substance
2		CDK12^715–1052/CycK^11–267 complex (from UniProt Q9NYV4 715-1052; O75909 11-267)
	0.3	full length CDK12/CycK1 complex (from UniProt Q9NYV4-1 1-1490; O75909 1-580)
